By Kd is commonly meant the free concentration of one partner at which half of the binding sites on the other are occupied at equilibrium, for simple one-to-one binding. A lower Kd goes with a tighter complex.

For one molecule, Kd results are on record in publication PMC12350670 (2025).

Experiment [1] concerns the target NGS2405-Fc (anti-FAP VNAR NGS2405 fused to the Fc of human IgG1) (nurse shark (Ginglyomostoma cirratum)). As to the kind of experiment: BLI. In general terms: Biolayer interferometry detects binding as a change in optical thickness at a sensor tip.
The target in experiment [2] is H4-Fc (anti-FAP VNAR H4 fused to the Fc of human IgG1) (nurse shark (Ginglyomostoma cirratum)). The experiment is described as follows: BLI.

B1: recombinant mouse FAP (mFAP) (enzyme)
chain: MKTWLKTVFGVTTLAALALVVICIVLRPSRVYKPEGNTKRALTLKDILNGTFSYKTYFPNWISEQEYLHQSEDDNIVFYNIETRESYIILSNSTMKSVNATDYGLSPDRQFVYLESDYSKLWRYSYTATYYIYDLQNGEFVRGYELPRPIQYLCWSPVGSKLAYVYQNNIYLKQRPGDPPFQITYTGRENRIFNGIPDWVYEEEMLATKYALWWSPDGKFLAYVEFNDSDIPIIAYSYYGDGQYPRTINIPYPKAGAKNPVVRVFIVDTTYPHHVGPMEVPVPEMIASSDYYFSWLTWVSSERVCLQWLKRVQNVSVLSICDFREDWHAWECPKNQEHVEESRTGWAGGFFVSTPAFSQDATSYYKIFSDKDGYKHIHYIKDTVENAIQITSGKWEAIYIFRVTQDSLFYSSNEFEGYPGRRNIYRISIGNSPPSKKCVTCHLRKERCQYYTASFSYKAKYYALVCYGPGLPISTLHDGRTDQEIQVLEENKELENSLRNIQLPKVEIKKLKDGGLTFWYKMILPPQFDRSKKYPLLIQVYGGPCSQSVKSVFAVNWITYLASKEGIVIALVDGRGTAFQGDKFLHAVYRKLGVYEVEDQLTAVRKFIEMGFIDEERIAIWGWSYGGYVSSLALASGTGLFKCGIAVAPVSSWEYYASIYSERFMGLPTKDDNLEHYKNSTVMARAEYFRNVDYLLIHGTADDNVHFQNSAQIAKALVNAQVDFQAMWYSDQNHGISSGRSQNHLYTHMTHFLKQCFSLSD
modifications: biotin (EZ-link NHS-PEG4-biotin)
Regarding B1, the dissociation constant Kd in experiment [1] amounted to 79.5 nM; in experiment [2], 14.2 nM.
